Reference: patent publication US20150111829A1 (PHASEBIO PHARMACEUTICALS, published 2015)

B1: M-VIP-ELP1-120 fusion protein PB1046 (other)
chain: MHSDAVFTDNYTRLRKQMAVKKYLNSILNVPGVGVPGVGVPGGGVPGAGVPGVGVPGVGVPGVGVPGGGVPGAGVPGGGVPGVGVPGVGVPGGGVPGAGVPGVGVPGVGVPGVGVPGGGVPGAGVPGGGVPGVGVPGVGVPGGGVPGAGVPGVGVPGVGVPGVGVPGGGVPGAGVPGGGVPGVGVPGVGVPGGGVPGAGVPGVGVPGVGVPGVGVPGGGVPGAGVPGGGVPGVGVPGVGVPGGGVPGAGVPGVGVPGVGVPGVGVPGGGVPGAGVPGGGVPGVGVPGVGVPGGGVPGAGVPGVGVPGVGVPGVGVPGGGVPGAGVPGGGVPGVGVPGVGVPGGGVPGAGVPGVGVPGVGVPGVGVPGGGVPGAGVPGGGVPGVGVPGVGVPGGGVPGAGVPGVGVPGVGVPGVGVPGGGVPGAGVPGGGVPGVGVPGVGVPGGGVPGAGVPGVGVPGVGVPGVGVPGGGVPGAGVPGGGVPGVGVPGVGVPGGGVPGAGVPGVGVPGVGVPGVGVPGGGVPGAGVPGGGVPGVGVPGVGVPGGGVPGAGVPGVGVPGVGVPGVGVPGGGVPGAGVPGGGVPGVGVPGVGVPGGGVPGAGVPGVGVPGVGVPGVGVPGGGVPGAGVPGGGVPGWP
B2: VIP-ELP1-120 fusion peptide PB1120 (peptide, part only; not given: ELP1-120 polymer, part only)
chain, part: HSDAVFTDNYTRLRKQMAVKKYLNSILN

What was measured:
Assay in all cases: cell-based or functional assay
[1] = biological target: T1, human Vasoactive Intestinal Peptide Receptor 1 (VPAC1) (human, UniProt P32241 31-457)
T1 sequence (looked up): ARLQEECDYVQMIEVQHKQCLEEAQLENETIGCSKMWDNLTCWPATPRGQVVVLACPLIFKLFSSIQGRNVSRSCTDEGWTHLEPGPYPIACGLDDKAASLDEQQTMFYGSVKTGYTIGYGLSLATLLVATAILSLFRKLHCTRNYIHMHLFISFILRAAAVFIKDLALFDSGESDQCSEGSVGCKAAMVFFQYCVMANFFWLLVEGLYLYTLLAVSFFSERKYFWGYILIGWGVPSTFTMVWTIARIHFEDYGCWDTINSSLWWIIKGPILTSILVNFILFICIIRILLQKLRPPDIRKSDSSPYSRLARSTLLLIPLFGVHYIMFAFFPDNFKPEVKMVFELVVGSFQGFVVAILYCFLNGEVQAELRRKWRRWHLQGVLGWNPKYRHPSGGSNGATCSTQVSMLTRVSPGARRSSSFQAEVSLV

[2] = biological target: T2, human Vasoactive Intestinal Peptide Receptor 1 (VPAC1) (human) (UniProt P32241)
T2 sequence (looked up): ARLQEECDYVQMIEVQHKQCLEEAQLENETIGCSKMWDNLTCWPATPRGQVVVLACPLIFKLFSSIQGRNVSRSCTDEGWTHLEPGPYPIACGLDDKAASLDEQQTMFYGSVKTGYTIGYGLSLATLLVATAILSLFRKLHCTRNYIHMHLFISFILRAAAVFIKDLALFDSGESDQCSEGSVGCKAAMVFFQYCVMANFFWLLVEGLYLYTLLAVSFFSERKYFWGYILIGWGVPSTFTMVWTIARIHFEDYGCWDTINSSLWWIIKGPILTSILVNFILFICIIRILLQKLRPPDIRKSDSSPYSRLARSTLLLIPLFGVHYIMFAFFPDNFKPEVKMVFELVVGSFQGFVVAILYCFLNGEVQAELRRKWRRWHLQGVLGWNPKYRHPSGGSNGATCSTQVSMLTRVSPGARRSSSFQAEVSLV

[3] = biological target: T3, human Vasoactive Intestinal Peptide Receptor 2 (VPAC2) (human) (UniProt P41587)
T3 sequence (looked up): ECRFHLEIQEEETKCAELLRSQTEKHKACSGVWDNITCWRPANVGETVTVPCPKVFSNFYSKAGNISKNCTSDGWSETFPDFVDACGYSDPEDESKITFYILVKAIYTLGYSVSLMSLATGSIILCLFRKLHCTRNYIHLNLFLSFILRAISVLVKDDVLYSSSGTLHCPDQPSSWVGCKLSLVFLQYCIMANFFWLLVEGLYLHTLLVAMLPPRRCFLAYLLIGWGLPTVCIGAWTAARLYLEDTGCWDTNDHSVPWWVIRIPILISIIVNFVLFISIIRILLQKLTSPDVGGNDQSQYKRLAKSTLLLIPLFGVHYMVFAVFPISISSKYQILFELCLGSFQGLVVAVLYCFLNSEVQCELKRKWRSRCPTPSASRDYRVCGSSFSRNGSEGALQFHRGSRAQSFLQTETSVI

Binder	cAMP assay in CHO cells expressing VPAC1, fold less active than native VIP [1]	cAMP assay in CHO cells expressing VPAC1, fold less active than native VIP (fold less active than native VIP) [2]	cAMP assay in CHO cells expressing VPAC2, fold less active than native VIP (fold less active than native VIP) [3]
B1	~11 fold less active than native VIP		
B2		1.4	1.5
